The text below walks through data of publication PMC5967604.

For one assay, the target named is OSM-3^SNAP (C. elegans) (UniProt P46873). Put plainly: single-molecule colocalisation of differentially labelled proteins.
Assay [1] addresses OSM-3G444E^Halo (C. elegans) (UniProt P46873). Described as above.

“QCC with GFP-tagged IFT-52(OSM-6), G5EDF6 1-472; Q0G838 1-471; G5ED37 1-820; Q8I7G4 1-656”: the colocalisation efficiency with OSM-3^SNAP (C. elegans) came to 81%; in assay [1], 85%.
